Fewer inactive variants are shown than the library holds.
B1: TPR 5TU (parent)
chain: GGAUCUUCUCGAUCUAACAAAAAAGACAAAUCUGCCACAAAGCUUGAGAGCAUCUUCGGAUGCAGAGGCGGCAGCCUUCGGUGGCGCGAUAGCGCCAACGUUCUCAACUAUGACACGCAAAACGCGUGCUCCGUUGAAUGGAGUUUAUCAUG

Variants of: B1
Assay: polymerase ribozyme fitness, log enrichment relative to wild type (log ratio); higher = more active; in vitro selection for triplet polymerase activity
In short: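 Mutant libraries of each subunit of a heterodimeric triplet polymerase ribozyme were built by PCR and transcribed. Each library went through one round of in vitro selection in triplicate: annealing with biotinylated primer, partner subunit and triplets, frozen incubation at −7 °C, gel excision of extended constructs, streptavidin-bead capture and RT-PCR. Input and output libraries were Illumina-sequenced; only genotypes with ≥10 input reads and ≥1 read per output were kept. Fitness is log2(genotype enrichment/wild-type enrichment), using inverse-variance-weighted replicate averages.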

Going from GGAUCUUCUCGAUCUAACAAAAAAGCCAAAUCUGCCACAAAACUUCAGGGCCUUUUCGGAUGCAGAGGCGGCAGCCUUCGGUGGCGCGAUUGCGCCAAUGUUCUCAACGAUGACACGCAAAACGCGUGCUCUGUUGAAUUGAGUUUAUCAUG to GGAUCUUCUCGAUCUAACAAAAAAGCCAAAUCUGCCACAAAGCUUGAGAGCAUCUUCGGAUGCAGAGGCGGCAGCCUUCGGAGGCGCGAUAGCGCCAACGUUCUCAACUAUGACACGCAAAACGCGUGCUCCGUUGGAUGGAGUUUAUCAUG, the “polymerase ribozyme fitness (log ratio)” value rises from ≤ -4.2 to -2.93.

Compared with GGAUCUUCUCGAUCUAACAAAAAAGCCAAAUCUGCCACAAAGCUUGAGAGCAUCUUCGGAUGCAGAGGCGGCAGCCUUCGGUGGCGCUAUAUCGCCAACGUUCUCAACUAUGACACUCAAAACGCGUGCUCCGUUGAAUGGAGUUUAUCAUG, GGAUCUUCUCGAUCUAACAAAAAAGCCAAAUCUGCCACAAAGCUUGAGAGCAUCUUCGGAUGCAGAGGCGGCAGCCUUCGGUCGCGCGAUAGCGCCAACGUUCUCAACUAUGACACGCAAAACGCGUGCUCCGUUGAAUGGAGUUUAUCAUG is higher in “polymerase ribozyme fitness (log ratio)” value: ≤ -4.2 for the first, -2.82 for the second.

GGAUCUUCUCGAUCUAACAAAAAAGCCAAAUCUGCCACAAAGCUUGAGAUCAUUUUCGGAUGCAGAGGCGGCAGCCUUCGGUGGCGCGAUAGCGCGAACGUUCUCAACUAUGACACGCAAAACGCGUGCUCCGUUGAAUGGAGUUUAUCAUG and GGAUCUUCUCGAUCUAACAAAAAAGCCAAAUCUGCCACAAAGCUUGAGAGCAUCUUCGGAUGCAGAGGCGGCAGCCUUCGGUGGCGCGAUAGGGCCAACGUUCUCAACUAUGACACGCAAAACGCGUGCUCCGUUGAAGUGAGUUUAUCAUG are within 0.2 log units of each other in “polymerase ribozyme fitness (log ratio)” value: -3.92 for the first, -4.11 for the second.

GGAUCUUCUCGAUCUAACAAAAAAGCCAAAUCUGCCACAAAGCUUGAGAGCAUCUUCGGAUGCAGAGGCGGCAGCCUCCGGUGGCGCAAUAGCGCCAACGUUCUCAAGUAUGAGACGCAAAACGCGUGCUCCGUUGAAUGGAGUUUAUGAUG and GGAUCUUCUCGAUCUAACAAAAAAGCCAAAUCUGCCACAAAGCUUGAGAGCAUCUUCGGAUGCAGAGGCGGCAGCCUUCGAUGGGGAGAUAGCGCCAACGUUCUCAACUAUGACACGCAAAACGCGUGCUCCGUUGAAUGUAGUUUAUGAUG cannot be ordered by “polymerase ribozyme fitness (log ratio)” value: ≤ -4.2 for the first, ≤ -4.2 for the second.

Compared with GGAUCUUCUCGAUCUAACAAAAAAGCCAAAUCUGCCACAAAGCUUGAGAGCAUCUUCGGAUGCAGAGGCGGCAGCCUUCGGUGGCGCGAUAGCGCCAACGUUCUCAACUAUGACACGCAAAACGCGUGCUCCGUUGAAUGGAGGUUAUCAUG, GGAUCUUCUCGAUCUAACAAAAAAGCCAAAUCUGCCACAAAGCUUGAGAGCAUCUUCGGAUGCAGAGGCGGCAGCCUUCGGUGGCGCGAUAGCGCCAACGUUCUCAACUAUGACACGCAAAACGCGUGCUCCGUUGAAUGGAGCUUAUCAUG is lower in “polymerase ribozyme fitness (log ratio)” value: -0.859 for the first, -2.23 for the second.

First: GGAUCUUCUCGAUCUAACAAAAAAGCCAAAUCUGCCACAAAGCUUGAGAGCAUCUUCGGAUGCAGAGGCGGCAGCCUUCGGUGGCGCGAUAGCGCAAACGUUCUCAACUAUGACACGCAGAACUCGUGCUCCGUUGAAUGGAGUUUAUCAUG
Second: GGAUCUUCUCGAUCUAACAAAAAAGCCAAAUCUGCCACAAAGCUUGAGAGCAUCAUCGGAUGCAGAGGCGGCAGACUUCCGUGGCGCGAUAGCACCAACGUUCUAAACUAUGACACGCAAAACGCGUGCUCCGUUGAAUGGAGUUUAUCAUG
The “polymerase ribozyme fitness (log ratio)” value of the first is higher: -2.02 for the first, ≤ -4.2 for the second.

GGAUCUUCUCGAUCUAACAAAAAAGGCAAAUCUGCCACACAGCUUGAGAGCAUCUUCGGAUGUAGAGGCGGCAGCCUUCUGUGGCGCGAUAACGCCAACGUUCUCAACUAUGACACGCAAAACGCUUGCUCCGUUGAAUGGUGUUUAUCAUG and GGAUCUUCUCGAUCUAACAAAAAAGGCACAUCUGCCACAAAGCUUGAGAGCAUCUUCGGAUGCAGAGGCGGCAGCCUUAGGUGGCGCGAUAGCGCCAACAUUCUCAACUAUGACACGCAAAACGCGUGCUCCGUUGAAUGGAGUUUAUCAUG cannot be ordered by “polymerase ribozyme fitness (log ratio)” value: ≤ -4.2 for the first, ≤ -4.2 for the second.

First: GGAUCUUCUCGAUCUAACAAAAAAGCCAAAUCUCCCACAAAGCUUGAGAGCCUCUUCGGAUGCAGAGGCGGCAGACUUCCGUGGCGCGAUAGCGCCAACGUUCUCAACUAUGACACGCAAAACGCGUGCUCCGUUGAAUGGAGUUUAUCAUG
Second: GGAUCUUCUCGAUCUAACAAAAAAGCCAAAUCUGCCACAAAGCUUGAGAGCAUCUUCGGAUGCAGAGGCGGCAGCCUUCGGUGGCGCGAUAGCGCCAACUUUCUCAACUAUGACACGCAAAACGCGUGCUCCGUUGAAUGGAGUUUAUCAUG
The “polymerase ribozyme fitness (log ratio)” value of the first is lower: ≤ -4.2 for the first, -4 for the second.

Compared with GGAUCUUCUCGAUCUAACAAAAAAGCCAAAUCUGCCACAAAGCUUGAGAGCAUCUUCGGAUGCAGAGGCGGCAGCCUUCGGUGGCGCGAUAGCGCCAACGUUCUCAACUAUGACACGCAAAACGCGUGCUCCGGUGAAUGGAGUUUAUCAUG, GGAUCUUCUCGAUCUAACAAAAAAGCCAAAUCUGCCACAAAGCUUGAGAGCAUCUACGGUUGCAGAGGCGGCAGCCUUCGGGGGCGCGAUAGCGCCAACGUUCUCAACUAUGACACGCAAAACGCGUGCUCCGUUGAAUGGAGUUUAUCAUG is higher in “polymerase ribozyme fitness (log ratio)” value: -4.1 for the first, -2.45 for the second.

With GGAUCUUCUCGAUCUAACAAAAAAGCCAAAUCUGCCACAAAGCUUGAGAGCAUCUUCGGAUGCAGAGGCGGCAGCCUUCGGAGGCGCGAUAGCGACAACGUUCUCAACUAUGACACGCAAAACGCGUGCUCCGUUGAAUGGAGUUUAUCAUG the “polymerase ribozyme fitness (log ratio)” value was -2.
